From the nanobody polyreactivity screen of Harvey et al. (2022)

test: yeast display, Sf9 membrane polyspecificity reagent, FACS + sequencing; frameworks hold sequencing errors
Summary of the method: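 In a synthetic yeast display library (Saccharomyces cerevisiae BJ5465), nanobody expression was induced with galactose for 36–48 hours. FACS gates were set low and high (top ~1%) using anti-HA fluorescence for expression and streptavidin fluorescence for binding of the Sf9 membrane reagent. Each polyreactivity label is drawn from the gate of origin.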

Row | Sequence | polyreactivity (PSR sort gate)
1 | QVQLVESGGGLVQAGGSLRLSCASSGNTFTVNAMGWYRQAPGKERELVAAINYSGGSTYYADSVKGRFTISRDNAKNTVYLQMNSLKPEDTAVYYCAASPDELLYEMYYWGQGTQVTVSS | low polyreactivity
2 | QVQLVESGGRLVQAGGSLRLSCAASGFIFGFYAMGWYRQAPGKELELVAANSWSGGSTYYADSVKGRFTISRDKAKNTVFIQMNSLKPVDTAVYYCAAYFVYLDDAVTYDYWGQGTHVTVSS | low polyreactivity
3 | QVQLVESGGGLVQAGGSLRLSCAASGSIFTYKAKVRYRQAPGKERELVAAISASGGSTYYADSVKGRFTISRDNAKHTVYVQMNSLKPEDTALYYCNAYQTSTPLFPGYGYWGQGTQVTVSS | low polyreactivity
4 | QVQLVESGGGLVQAGGSLRLSCAASGITFTPNAMGWYRQAPGTEREFVAAITYSGGSTYYADSVKGRFTISRDNAKNTVYLQMNSLKPEDTAVYYCAAVYDLLYYEAYYYWGQGTQVTVSS | low polyreactivity
5 | QVQLVESGGGLVQAGGRLRLSCAASGRIFVIKSMGWYRQAPAKERELVAAISKRGGSTYYADSVKGRFTISRDNAKNTVYLQMNSLKPEDTAVYYCAARFKTTGYDYWGQGTQVTVSS | high polyreactivity
6 | QVQLVESGGGLVQAGGSLRLSCAASGRNFHRYAMGWYRQAPGKERELVATIRSGGGTYYADSVKGRFTISRDNAKNTVYLQMNSLKPEDTAVYDCNAQSSYSYFSGYDYWGQGTQVTVSS | low polyreactivity
7 | QVQLVESGGGLVQAGGSLRLSCAASGIIFPYYAMGWYRQAPGKERELVAAINSSGGSTFYAHSVKGRFTISRDNAKNTVYLQMNSLKPVVTAVYYCAAETLRYRWSLYYWGQGTQVTVSS | high polyreactivity
8 | QVQLVESGGGLVQAGGSLGLSCAASGYSLGSYAMGWYRQAPGKERELVAAITSSGGSTYYADSVKGRFTSSRDYAKNTDYLQMNSLKPEDTAVYYCAAERGYHGGGSGLYDYWGQGTQVTVSS | low polyreactivity
9 | QVQLVESGGGLVQAGGSLRLSCAASGSIFARNAMGWYRQAPGKERELVAAISRSGGITYYADSVKGRFTISRDNAKNTVYLQMNSLKPEDTAVYYCATVGYYKGNQVLPAKDGDSWGQGTQVTVSS | high polyreactivity
10 | QVQLVESGGGLVQAGGSLRLSCAASGRIFYRYAMGWYRQAPGKERELVAGITRGGSTYYADSVKGRFTISRDNAKNTVYFQMNSLKPEDTAVYYCNVRWSPAGTGLLDYWGQGTQVTVSS | high polyreactivity
11 | QVQLVESGGGLVQAGGSLRLSCAASGFIFNVYAMGWYRQAPGKERELVAAISQRGGRTYYADSVKGRFTISRDNAKNTVYLQMNSLKPEDTAVYYCKLFYPKHGYWGQGTQVTVSS | high polyreactivity
12 | QVQLVESGGGLVQAGGSLRLSCAASGGIFGDYAMGWYRQEPGKERELVAAINSGDSTNYADSVKGRFTISRDNAKNTVYLQMNSLKPEDTAVYYCNARGYWVYYVEYDYWGQGTQVTVSS | low polyreactivity
13 | QVQLVESGGGLVQAGGSLRLSCAASGIIFLTHAMGWYRQAPGKERELVAAITAIGGSTYYADSVKGRFTLSRDNAMNTVYLLMISLKPEDTADYYCAADFSYVYYLYDFWGQGTKVTVSS | low polyreactivity
14 | QVQLVESGGGLVQAGGSLRLSCAASGIIFPYYAMGWYRQAPGKERELVARITRRGGSTYYADSVKGRFTISRDNAKNTVYLQMNSLKPEDTAVYYCAAYAPYYRTMEYWGQGTQVTLSS | high polyreactivity
15 | QVQLVESGGGLVQAGGSLRLSCAASGFTFTRYGMGWYRQSPGKERELVAGISSGGSTNYADSVKGRFTISRDNSKNTVYLQMNSLKPEDTAVYYCAAGFYSHGIELGYWGQGTQVTVSS | high polyreactivity
16 | QVQLVESGGRLVQAGGSLRLSCAASGSTIYPNAMGWSRQAPGKERELVAAISRGTRTKYADSVKGRFTISRDNAKNTVYVQMNSLKPEDTAVYYCAADTGTGLDWGQGTQGTVSS | high polyreactivity
17 | QVQLVESGGGLVQAGGSLRLSCAASGFTFSYNSMGRYRQATGKERELVARISRTGGSTNYADSVKGRFTISRDNAKNTVYLQMNSLKPEDTAVYYCGTGYRYTYGSWGQGTQVTVSS | high polyreactivity
18 | QVQLVESGGGLVQAGGSLRLSCAASGSIFSQYAMGWYRQAPGKERELVAAITYGGGSTYYADSVKGRFTISRDNAKNTVYLQMNSLKPEDTAVYYCAAGYWNDFDWGQGTQVTVSS | low polyreactivity
19 | QVQLVESGGGLVQAGGSLRLSCAASGRIFVQNAMGWYRQAPGKERELVAAISISGARTYYADSVKGRFTISRDNAKNTVYLQMNSLKPEDTAVYYCNASYRDEDDYWGQGTQVTVSS | high polyreactivity
20 | QVQLVESGGGLVQAGGSLRLSCAASGLTFSWYAMGWYRQAPGKEREFVATISASGGSTYYADSVKGRFTISRDNAKNTVYLQMNSLKPEDTAVYYCNAIYFRYRNGGYDYWGQGTQVTVSS | high polyreactivity
21 | QVQLVESGGGLVQAGGSLRLSCAASGFIFAGYAMGWYRQAPGKERELVAAISSGGGSTYYADSVKGRFTISRDNAKNTVYLQMNSLKPEDTAVYYCAARRLYPPGYYYWGQGTQVTVSS | high polyreactivity
